This note sets out measurements from PMC5050560.

To fix the notation:
B1: Pr119 (dsDNA)
DNA 1: TTTCAACCACTCCTCTTAGTTTGATTTGGTAAGTTTAGGTCGGTATTTATTATATAATATAAATGAAACATTATATAATGGAAAAATTTCCCAGTAAACT
DNA 2: AGTTTACTGGGAAATTTTTCCATTATATAATGTTTCATTTATATTATATAATAAATACCGACCTAAACTTACCAAATCAAACTAAGAGGAGTGGTTGAAA
B2: Pr27 (Pobg) (dsDNA)
DNA 1: ATACATAAAAGGAGTGTTGAGGCACTCCTTTTTCTTATAATACTGATGAATTTATAATGGTATTTTTGGTAATGCTAATTAAAAGTTTTTAATTAAGTAG
DNA 2: CTACTTAATTAAAAACTTTTAATTAGCATTACCAAAAATACCATTATAAATTCATCAGTATTATAAGAAAAAGGAGTGCCTCAACACTCCTTTTATGTAT
B3: Pr114 (dsDNA)
DNA 1: ATATTTTATAATTAATAATTGTAATGCCGCACAGTAAAGGTTTAAATCTTCAAATGAAGTACCTTGTACTGGCGAGTTTGAGGCCGAGGAGGTGTATTTA
DNA 2: TAAATACACCTCCTCGGCCTCAAACTCGCCAGTACAAGGTACTTCATTTGAAGATTTAAACCTTTACTGTGCGGCATTACAATTATTAATTATAAAATAT
B4: Pr46 (dsDNA)
DNA 1: TTTTTTTATTTATAAACATTATTAAAAAAATATAGATGTTTTGGTTATATTCCTTGTCCTTTATAAATAGAATTATATAAACAAAGGAGGAGGACAAGAG
DNA 2: CTCTTGTCCTCCTCCTTTGTTTATATAATTCTATTTATAAAGGACAAGGAATATAACCAAAACATCTATATTTTTTTAATAATGTTTATAAATAAAAAAA
B5: Pr118 (dsDNA)
DNA 1: AACCCGTCATATGGCTTGAGTTTATACTCAAGCTTTTTTTATTGGTATATTTATATATATAAATAATTTAATATAATCAAAATGATGGGGGTATGTTACA
DNA 2: TGTAACATACCCCCATCATTTTGATTATATTAAATTATTTATATATATAAATATACCAATAAAAAAAGCTTGAGTATAAACTCAAGCCATATGACGGGTT
B6: Pr47 (dsDNA)
DNA 1: TCTTGACCTCGATAAGTGTCGTAAGTCAAGGGTAATTTATATATCAGTGAAAAATAATTACATTTAATCTAATGTTTTTAGAGAGGAGGATGCTATGTTA
DNA 2: TAACATAGCATCCTCCTCTCTAAAAACATTAGATTAAATGTAATTATTTTTCACTGATATATAAATTACCCTTGACTTACGACACTTATCGAGGTCAAGA
B7: Pr101 (dsDNA)
DNA 1: GTACTATACAGCCTGGAGTAG
DNA 2: CTACTCCAGGCTGTATAGTAC

The target of one series is cdPadR1 (Clostridium difficile R20291, UniProt A0A9R0CDW8 1-109). In words: EMSA; 20 mM Tris pH 8.0, 120 mM KCl, 10 mM MgCl2, 5 mM DTT, 12.5% glycerol, 125 ug/mL heparin, room temperature. Particulars: protein: recombinant; tags: N-terminal Strep II; chain copies: 2. Background: Mobility shift assays separate free from complexed probe on a gel.
As to B1, the binding result is on record as “binds”.

For B2, the binding result is “binds”. Turning to B3, the binding result is recorded as “no binding”.

Turning to B4, the binding result is “binds”. Still for that read-out and setting: next, B5: “binds”. B6: the binding result is recorded as “no binding”.

The target is the same in a further series. Briefly: EMSA; no significant binding; EMSA: 20 mM Tris pH 8.0, 120 mM KCl, 12.5% glycerol, 10 mM MgCl2, 5 mM DTT, 125 ug/mL heparin (400 ug/mL in competition), room temperature; 8% PAGE in TB. The conditions noted are these: protein: recombinant; tags: N-terminal Strep II; chain copies: 2; blunt.
Take B7: the binding result is given as “no binding”.
